In the supplement of paper PMC9170038:

System: MS2 coat protein
Assay: apparent KD of MS2 coat protein; designed switch direction (-1 OFF switch, 1 ON switch): -1; higher = weaker reporter binding
Outline: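 Designed RNA switches were transcribed on Illumina chips by stalled E. coli RNA polymerase and titrated with SNAP-549-labelled MS2 coat protein from 0.7 or 1.5 nM, doubling to 3 µM. Step length ran from 0.8–1.5 h at the lowest concentration to 10–20 min at the highest. The apparent KD is the median over clusters for each design, from curve-fitted normalised cluster fluorescence.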

[1] = input ligand: microRNA oligo, concentration not stated
[2] = Eterna round: R95, input ligand: FMN 200 uM
[3] = Eterna round: R95, input ligand: microRNA oligo, concentration not stated
[4] = Eterna round: R95, input ligand: none

Sequence | apparent KD of MS2 coat protein (input ligand: FMN 200 uM) | apparent KD of MS2 coat protein (input ligand: none) | apparent KD of MS2 coat protein [3] | also measured
GUCUGAGCAGGAUAUACAUGAGGAUCACCCAUGUUGGUUCAGCGACGAUAGUCGCAAUGUAGAAGGGCUCAGAC [E3/9-D1] (Eterna round: R97, puzzle: Exclusion 3) | 73.5 nM | 258 nM | – | –
GUCUUCAUGACAUGAGGAUCACCCAUGUGUUAUAUGUUAACUAAGGAUAUAUUUUUAAUGUUGAGAUAGAAGGUAGUUUCGGUC [JR_ExcNG3_Sub091] (Eterna round: R96, puzzle: Exclusion NG 3) | 120 nM | 131 nM | – | apparent KD of MS2 coat protein [1]: 95.8 nM
GUCUUCAUGACAUGAGGAUCACCCAUGUGUUAUAUUUUUACUAAGGAUAUAUUUUUAAUGUUGAGAUAGAAGGUAGUUUCGGUC [JR_ExcNG3_Sub092] (Eterna round: R96, puzzle: Exclusion NG 3) | – | – | – | apparent KD of MS2 coat protein [1]: 79.1 nM
GUCUUGAUAGGAUAUACAUGAGGAUCACCCAUGUCCCACCCGUUACCUCUGACCCUAUGUAGAAGGAUCGUUUG [Exy#17] (Eterna round: R97, puzzle: Exclusion 3) | 34.3 nM | 48.3 nM | – | –
GUGAAACAUGAGGAUCACCCAUGUGAGGAUAUGAUUAAGUAAUGAUGAAAGUAUAUAUUCAGAAGGCACAAUGG [Mat - Mod of JL D73] (puzzle: Exclusion 1) | – | – | 83.3 nM | apparent KD of MS2 coat protein [2]: 132 nM; apparent KD of MS2 coat protein [4]: 152 nM
GUGAAACAUGAGGAUCACCCAUGUGAGGAUAUGUUUUAGUACUGCUGACAGUACAUCUAUAGAAGGCACAAUGG [JL-ex1-02] (puzzle: Exclusion 1) | – | – | 33.7 nM | –
GUGAACGGAGGAUAUAUAUGGGCAGCAUACGCUGCAGCUUCACAUGAGGAUCACCCAUGUAGAAGGCUGUACAC [Mat - Exclusion 2 - Mod of Hyphema - D101] (puzzle: Exclusion 2) | – | – | 8.26 nM | –
GUGAAGUGAGGAUAUAUGAGAGAGGCUGAACCGGACGAGAAGUAGAAGGCACAUGAGGAUCACCCAUGUAAGGG [JR_Exclu4_Sub024] (puzzle: Exclusion 4) | – | – | 255 nM | apparent KD of MS2 coat protein [2]: 293 nM; apparent KD of MS2 coat protein [4]: 372 nM
GUGACUGAUGUCAGGAUAUCCGGUGCUAAAGUACAGGAGAAGGGACAUGAGGAUCACCCAUGUAACUUAGCCAG [BmEX4 B.7] (Eterna round: R97, puzzle: Brourd's mod of Exclusion 4) | 23.2 nM | 15.4 nM | – | –
GUGAGAUAGUUAGUGGACGACAUGAGGAUCACCCAUGUGAGGGAAAUGUUGAGGAGAAAGCUUUUUGCUCGUCUUUA [JR_SV3TOV1_Sub036] (puzzle: Sensor v3, turn-off variant 1) | – | – | 87.4 nM | apparent KD of MS2 coat protein [2]: 90.8 nM; apparent KD of MS2 coat protein [4]: 119 nM
GUGAGCAGACGGAGAUCCUACAUGAGGAUCACCCAUGUCUCACUAGCUUUUUGCUCGUCUUAUCCUCCUCUGUUCUC [Elimod 25 - Jieux - Sensor, turn-off variant 1] (Eterna round: R97, puzzle: Sensor, turn-off variant 1) | 176 nM | 201 nM | – | –
GUGAGGCCAGUGAGGAUAUGUGUACAACUACGUGCAUAGAAGGCACAUGAGGAUCACCCAUGUGAAUUCCCAGG [Eternabot (L1) Solution 65] (Eterna round: R97, puzzle: Brourd's mod of Exclusion 4) | 14.7 nM | 14.4 nM | – | –
GUGAGGUAAGGAUAUAGUAGUGAAGGUAAAAUAUGAGAAUGCUAGAAGGUACAUGAGGAUCACCCAUGUUAGGG [JR_Exclu4_Sub088] (puzzle: Exclusion 4) | – | – | 146 nM | –
GUGAUACAUGAGGAUCACCCAUGUCAGGAUAUGAUACUAUGUACUUCGGUACAUAGUAUCAGAAGGGACAGUGA [Ex1-3: 4] (puzzle: Exclusion 1) | – | – | 125 nM | –
GUGCAACAUGAGGAUCACCCAUGUCAGGAUAUGCGAAUUUCAUCAAAAGAUGAAAUUUGCAGAAGGGACUAUAC [Omei Ex1 A22] (Eterna round: R97, puzzle: Exclusion 1) | 67.4 nM | 38.5 nM | – | –
GUGCAACAUGAGGAUCACCCAUGUGAGGAUAUGCGAAUUUCAUCAAAAGAUGAAAUUUGCAGAAGGCACAGCAC [Omei Ex1 A13] (Eterna round: R97, puzzle: Exclusion 1) | 20.5 nM | 15.9 nM | – | –
GUGCCGCGAGGAUAUACAGACGGGUCCAUUACGUGUCUCGGACUUGAGGAUCACCCAAGUAGAAGGCGUCUCGG [salish99_ex2_r4_627] (Eterna round: R97, puzzle: Exclusion 2) | 26 nM | 27.9 nM | – | –
GUGCGGUGAGGAUAUACGUAGGUGAAAAUCUGUGUGUUCCUACAUGAGGAUCACCCAUGUAGAAGGCAUGGCAC [LRO-Excl2-13] (puzzle: Exclusion 2) | – | – | 90.5 nM | –
GUGGAGGUAGGAUAUCCGCUUCCGGACAUGAGGAUCACCCAUGUUGUUCGGAUUGGACAGGGAGAAGGGCCCACAA [Eternabot (Original) Solution 37] (Eterna round: R97, puzzle: Exclusion 5) | 44.9 nM | 39.3 nM | – | –

Sequence | apparent KD of MS2 coat protein (input ligand: FMN 200 uM) | apparent KD of MS2 coat protein (input ligand: none) | apparent KD of MS2 coat protein [3] | also measured
GUGGAGUAAGGAUAUACAUGAGGAUCACCCAUGUGAGGGUAUGAGAAGGGAAUGAGAGGUAGAAGGUACGAGGA [JR_Exclu3_Sub069] (puzzle: Exclusion 3) | – | – | 106 nM | apparent KD of MS2 coat protein [2]: 108 nM; apparent KD of MS2 coat protein [4]: 186 nM
GUGGCACAUGAGGAUCACCCAUGUCAGGAUAUCGUGUGUUUUUUUUCGGCCGCGCGCGCGAGAAGGGACGUCUU (puzzle: Exclusion 1) | – | – | 97.8 nM | –
GUGGGUCCUCACGGUGCUACAUGAGGAUCACCCAUGUGGAUUGAGGAUAUCGUAACCCUACGGGACGAGAAGGCAGUUUACUGU [Ex NG3 #100] (Eterna round: R96, puzzle: Exclusion NG 3) | 48.5 nM | 23.1 nM | – | apparent KD of MS2 coat protein [1]: 14.7 nM
GUGGGUUACAUGAGGAUCACCCAUGUAGAGUGGGAAGAGAGAUAGGAUAUGAUGUGAGAAUUAUAUUAGAAGGAUCGAGACUCG [AK ExNG3-2.5] (Eterna round: R96, puzzle: Exclusion NG 3) | 246 nM | 285 nM | – | apparent KD of MS2 coat protein [1]: 174 nM
GUGGUACAUGAGGAUCACCCAUGUUAGGAUAUCGCGUGAGGUUUUACUUCCGCACACACGAGAAGGGACGUCUU (puzzle: Exclusion 1) | – | – | 27.7 nM | –
GUGUACAGAGGAUAUACAAGAGGAGUUACGAAAGUAACUUCACAUGAGGAUCACCCAUGUAGAAGGCUGUACAC [Dot plot directed v7] (puzzle: Exclusion 2) | – | – | 21.2 nM | –
GUGUACGGAGGAUAUAUGUGGGCAGGCUGACCUGCAGCUUCACAUGAGGAUCACCCAUGUAGAAGGCUGUACAC [Mat - Exclusion 2 - Mod of Hyphema - D99] (puzzle: Exclusion 2) | – | – | 20.7 nM | –
GUGUACGGAGGAUAUAUGUGGGCAGGCUGACCUGCAGCUUCACAUGAGGAUCACCCAUGUAGAAGGCUGUGCAC [JL-ex2-2.08 Brourd mod] (puzzle: Exclusion 2) | – | – | 16.9 nM | –
GUGUACGGAGGAUAUAUGUGGUGAGCAUACGCUCAAGCUUCACAUGAGGAUCACCCAUGUAGAAGGCUGUGCAC [JL-ex2-2.13 Brourd mod] (puzzle: Exclusion 2) | – | – | 118 nM | –
GUGUACGGAGGAUAUGUAUGGGCAGGCUGACCUGCAGCUUCACAUGAGGAUCACCCAUGUAGAAGGCUGUGCAC [JL-ex2-2.09 Brourd mod] (puzzle: Exclusion 2) | – | – | 10.7 nM | –
GUGUACGUAGGAUAUACAUGAGGAUCACCCAUGUGAAUAAGAUAGAAUAAGAUAAAGUGUAGAAGGACGAGUGU [Excluse me!!! 6 - Jieux - Exclusion 3] (puzzle: Exclusion 3) | – | – | 30.4 nM | –
GUGUAGACAGGAUAUGCUUUGAGCAUAUGAGAGUAUGCUCUACAUGAGGAUCACCCAUGUAGAAGGGUCUACAC [LRO-Excl2-01] (puzzle: Exclusion 2) | – | – | 11 nM | –
GUGUAGAUAGGAUAUGCGUGAGUCUAGCGAAGCUAGGCUCUACAUGAGGAUCACCCAUGUAGAAGGGUCUACAC [Dot plot directed A v14] (puzzle: Exclusion 2) | – | – | 17.3 nM | –
GUGUAGCAAGGAUAUACAUGAGGAUCACCCAUGUGAAUAAGAUAGAAUAAGAUAAAGUGUAGAAGGUGUAGUGU [Excluse me!!! 10 - Jieux - Exclusion 3] (puzzle: Exclusion 3) | – | – | 37.2 nM | –
GUGUAGUAAGGAUAUAGAAAGAGGGAGUAAGAUAGAGAGUUCUAGAAGGUACAUGAGGAUCACCCAUGUUGGAG [JR_Exclu4_Sub082] (puzzle: Exclusion 4) | – | – | 28.9 nM | apparent KD of MS2 coat protein [2]: 24.9 nM; apparent KD of MS2 coat protein [4]: 27.8 nM
GUGUAGUGAGGAUAUACAUGAGGAUCACCCAUGUGAAUAAGAUAGAAUAAGAUAAAGUGUAGAAGGCACAGUGU [Excluse me!!! 3 - Jieux - Exclusion 3] (puzzle: Exclusion 3) | – | – | 35.7 nM | apparent KD of MS2 coat protein [2]: 39.5 nM; apparent KD of MS2 coat protein [4]: 41.9 nM
GUGUAGUUAGGAUAUGCUGGAAUCUAGCGAAGCUAGGUUCCACAUGAGGAUCACCCAUGUAGAAGGGACUACAC [Dot plot directed A v10] (puzzle: Exclusion 2) | – | – | 168 nM | –
GUGUGCACGCUGCGAUCCUACAUGAGGAUCACCCAUGUGGUCUGGUGGCGUGGGUCACCGGACUUGGCUCGUCUUGC [salish99_S_TOV1_R5_072] (Eterna round: R97, puzzle: Sensor, turn-off variant 1) | 35.6 nM | 35.8 nM | – | –
GUGUGCAGACGGAGAUCCUACAUGAGGAUCACCCAUGUCUCACUAGCUUUUUGCUCGUCUUAUCCUCCUCUGUUCUC [Elimod 26 - Jieux - Sensor, turn-off variant 1] (Eterna round: R97, puzzle: Sensor, turn-off variant 1) | 295 nM | 497 nM | – | –
